# Assay results published in patent EP4631972A1, “SITE-SPECIFIC COUPLED PEGYLATED INTERLEUKIN-2 MUTANT WITH RECEPTOR AFFINITY PREFERENCE AND USE THEREOF” (priority 2022, dated 2024).
# B1: 80K-1PEG-IL2-N88R-N77C: IL-2 mutant N88R, N77C, conjugation site 77, PEG molecular weight 80kD (conjugate)
# chain: APTSSSTKKTQLQLEHLLLDLQMILNGINNYKNPKLTRMLTFKFYMPKKATELKHLQCLEEELKPLEEVLNLAQSKC(PEG 80 kDa)FHLRPRDLISRINVIVLELKGSETTFMCEYADETATIVEFLNRWITFSQSIISTLT
# Key:
# Treg cells = experiment: P-STAT5 activation in Treg cells of human PBMCs (flow cytometry); assay type: cell-based; details: P-STAT5 MFI in CD3+/CD4+/CD25+ cells of human PBMCs, 30 min stimulation
# Experimental: In the example, the activation effect of each mutant prepared in Example 6 on P-STAT5 in different cell subsets (Tregs, CD8+T cells, NK cells) from human PBMCs (Miaoshun Biotechnology) was detected.
# Human PBMC cells were thawed and resuspended to 1.5×10^6 cells/ml in RPMI1640 medium containing 10% FBS. 100 µl was added to each well of a V-bottom 96-well culture plate. Each IL-2 mutant prepared in Example 6 was diluted 10-fold in series: 1000 nM was used as the working concentration for the first well, and then 100 µl/well of each serial dilution was added to each cultured cell, stimulated at 37°C for 30 min, and the reaction was terminated on ice. The cells were treated with a commercial fixative and permeabilization agent (BD biosciences 558049 & 558050), and stained with antibodies against CD3, CD4, CD25, and CD8 according to conventional methods. P-STAT5 antibody staining was also performed (Table 7) to detect the mean fluorescence intensity (MFI) of P-STAT5 in CD3+/CD4+/CD25+ (Treg cells) and CD8+/CD3+ cells ([…]) by flow cytometry.
# [1] = Pharmacokinetic study in cynomolgus monkeys; details: cynomolgus monkey
# Experimental: Blood was collected before and after administration (4h, 8h, 24h, 48h, 72h, 120h, 168h, 240h, 336h) in the first cycle and after administration (8h, 24h, 48h, 72h, 120h, 168h, 240h) in the second cycle to detect plasma drug concentration.
# [2] = Effects on body weight and physiological characteristics of mice; details: 1 mg/kg s.c. once every three days, three times
# Experimental: SPF grade Balb/c mice were purchased, with 3 mice in each group. Administration was started on the day of grouping. The test substance or PBS (negative control group) was administered subcutaneously at a dose of 1 mg/kg, once every three days, for a total of three times. The mice were weighed before each administration and three days after the third administration .
# [3] = Pharmacokinetic study in mice, single administration, plasma concentration by ELISA; details: 1 mg/kg s.c. single administration
# Experimental: Balb/c mice were purchased, with 4 mice in each group. Each IL-2 mutant to be tested was administered subcutaneously once at a dose of 1 mg/kg. Blood was collected from the orbit at different time points after administration, and the plasma was separated and the plasma drug concentration was detected by ELISA. The main pharmacokinetic parameters were calculated, and C-T curve was plotted.
# [4] = female, first-cycle dosing 50 µg/kg s.c.
# [5] = female, second-cycle dosing 400 µg/kg s.c.
# [6] = male, first-cycle dosing 50 µg/kg s.c.
# [7] = male, second-cycle dosing 400 µg/kg s.c.
molecule,measurement,setting,value
B1,EC50,Treg cells,29.8 nM
same,AUC inf,[1]; [4],186.0556 µg·h/mL
same,AUClast,[1]; [4],147.9248 µg·h/mL
same,CL,[1]; [4],0.27
same,Cmax,[1]; [4],902.5692 ng/mL
same,MRT,[1]; [4],122.9092 h
same,Tmax,[1]; [4],8 h
same,AUC inf,[1]; [5],2286.053 µg·h/mL
same,AUClast,[1]; [5],1481.823 µg·h/mL
same,CL,[1]; [5],0.17
same,Cmax,[1]; [5],8785.158 ng/mL
same,MRT,[1]; [5],103.1 h
same,Tmax,[1]; [5],8 h
same,AUC inf,[1]; [6],278.1948 µg·h/mL
same,AUClast,[1]; [6],184.7575 µg·h/mL
same,CL,[1]; [6],0.18
same,Cmax,[1]; [6],824.4732 ng/mL
same,MRT,[1]; [6],142.9087 h
same,Tmax,[1]; [6],48 h
same,AUC inf,[1]; [7],2635.62 µg·h/mL
same,AUClast,[1]; [7],1885.448 µg·h/mL
same,CL,[1]; [7],0.15
same,Cmax,[1]; [7],11432.93 ng/mL
same,MRT,[1]; [7],102.1 h
same,Tmax,[1]; [7],48 h
same,toxic side effects on mice,[2],less toxic side effects
same,visual observation of the mice,[2],in good condition
same,body weight compared with negative control,[2]; three days after the third dose,not significantly different from that of the negative control
same,AUC inf,[3],463.63062 ± 37.7282 µg·h/mL
same,AUClast,[3],437.8594 ± 41.0906 µg·h/mL
same,CL,[3],2.17±0.18
same,Cmax,[3],8418.72 ± 491.4 ng/mL
same,MRT,[3],40.08 ± 2.1 h
same,Tmax,[3],24 h
same,mean half-life,[3],25.23 h
same,mean residence time (MRT),[3],40.08 h
